# Assay results: publication PMC9943654, “The recognition mode between hsRBFA and mitoribosome 12S rRNA during mitoribosomal biogenesis”
# T1: hsRBFA Nt-KH (Homo sapiens, UniProt Q8N0V3 42-201)
# T1 sequence: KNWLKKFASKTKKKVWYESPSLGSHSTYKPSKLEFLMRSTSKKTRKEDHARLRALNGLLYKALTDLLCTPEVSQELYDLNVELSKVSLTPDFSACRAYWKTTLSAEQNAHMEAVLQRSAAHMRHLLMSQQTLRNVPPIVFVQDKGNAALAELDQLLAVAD
# T2: hsRBFA KH-like (Homo sapiens, UniProt Q8N0V3 86-201)
# T2 sequence: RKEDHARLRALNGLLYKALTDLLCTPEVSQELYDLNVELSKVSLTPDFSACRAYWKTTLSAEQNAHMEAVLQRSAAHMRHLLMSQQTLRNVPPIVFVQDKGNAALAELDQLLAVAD
# T3: hsRBFA Nt (Homo sapiens, UniProt Q8N0V3 42-89)
# T3 chain: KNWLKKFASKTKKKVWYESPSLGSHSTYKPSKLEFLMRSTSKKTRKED
# B1: AU (structured_RNA)
# RNA: AUAAUAGAAGUAUUAU
# B2: h28 (structured_RNA)
# RNA: GGUGGCGGUGCUUCAUUCGUGAAGCGCGUCACC
# B3: DNA (dsDNA)
# DNA 1: TTGGTCAG
# DNA 2: CTGACCAA
# B4: h45 (structured_RNA)
# RNA: UAAGUGUACUGGAAAGUGCACUUG
# B5: ssRNA-3'end (ssRNA)
# RNA: GACGAAC
# B6: GC (structured_RNA)
# RNA: CGCCGCGAAGGCGGCG
# B7: h44 (structured_RNA)
# RNA: GGCGUCACCCUCUUCGGAGACAAGUCGCC
# Assays:
# hsRBFA Nt-KH = molecular target: T1, hsRBFA Nt-KH; assay: EMSA; EMSA: 20 mM Tris-HCl pH 8.0, 200 mM NaCl, 37 C 30 min, 200 nM ssRNA or 2 uM dsRNA; FP: same buffer, 40 nM 5'-FAM RNA, temperature not stated; conditions: protein: recombinant, tags: His6-MBP N-terminal
# hsRBFA KH-like = molecular target: T2, hsRBFA KH-like; assay: as above; conditions: protein: recombinant, tags: His6-MBP N-terminal
# hsRBFA Nt = molecular target: T3, hsRBFA Nt; assay: EMSA; complex stays in well; EMSA: 20 mM Tris-HCl pH 8.0, 200 mM NaCl, 37 C 30 min, 200 nM ssRNA or 2 uM dsRNA; FP: same buffer, 40 nM 5'-FAM RNA, temperature not stated; conditions: protein: recombinant, tags: His6-MBP N-terminal, hairpin
binder,measurement,setting,value
B1,binding result,hsRBFA Nt-KH; hairpin,binds
B2,binding result,hsRBFA Nt-KH; hairpin,binds
same,binding result,hsRBFA KH-like; hairpin,no binding
same,binding result,hsRBFA Nt,binds
B3,binding result,hsRBFA Nt-KH; blunt,binds
B4,binding result,hsRBFA Nt-KH; hairpin,binds
same,binding result,hsRBFA KH-like; hairpin,no binding
same,binding result,hsRBFA Nt,binds
B5,binding result,hsRBFA KH-like; single strand,no binding
B6,binding result,hsRBFA Nt-KH; hairpin,binds
B7,binding result,"hsRBFA Nt-KH; label: 5'-FAM in FP, hairpin",binds
same,binding result,"hsRBFA KH-like; label: 5'-FAM in FP, hairpin",no binding
same,binding result,hsRBFA Nt; label: 5'-FAM in FP,binds
